The values that follow come from US20090031441A1 (NATIONAL UNIVERSITY CORPORATION NAGOYA UNIVERSITY, published 2009).

Holding throughout (assay): yeast two-hybrid, AtGID1 bait and AtDELLA prey, 10^-5 M GA4 in medium; colony growth (Assay A) and beta-galactosidase activity (Assay B)
In experiment [1] the target is T1, RGL3 (Arabidopsis DELLA protein), yeast two-hybrid prey in pGADT7 AD vector (Arabidopsis, UniProt Q9LF53 1-523).
T1 construct: also called AtDELLA
T1 sequence (looked up): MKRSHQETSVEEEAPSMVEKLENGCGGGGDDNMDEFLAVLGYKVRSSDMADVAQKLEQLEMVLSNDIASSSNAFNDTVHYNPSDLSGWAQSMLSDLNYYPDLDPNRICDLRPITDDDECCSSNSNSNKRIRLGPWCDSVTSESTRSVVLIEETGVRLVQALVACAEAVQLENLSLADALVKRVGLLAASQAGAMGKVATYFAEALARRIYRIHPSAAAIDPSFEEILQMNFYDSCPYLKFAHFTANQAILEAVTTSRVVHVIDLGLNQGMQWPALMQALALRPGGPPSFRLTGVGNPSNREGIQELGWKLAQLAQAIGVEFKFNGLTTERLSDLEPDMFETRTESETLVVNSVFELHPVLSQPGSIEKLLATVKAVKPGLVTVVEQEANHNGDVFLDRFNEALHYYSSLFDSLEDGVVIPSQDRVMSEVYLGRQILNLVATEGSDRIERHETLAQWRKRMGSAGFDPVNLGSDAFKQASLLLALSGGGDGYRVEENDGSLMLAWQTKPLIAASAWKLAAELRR
As to the method: (§1) Panel A) depicts AtGID1-AtDELLA interaction in the presence of GA in two types of yeast hybrid (Y2H) assays. Each AtGID1 was used as a bait while AtDELLA was a prey. GA₄ (10⁻⁵ M) was added to the medium. The bars indicates β-galactosidase activity when o-nitrophenol-β-D-galactopyranoside was used as a substrate (Assay B). The growth of each transformant in the defined medium for 2 days (Assay A) is shown beneath of each bar graph. The experiment was carried out in quadruplicate. The SD value shown in the figure was determined from three measurements. Panel B) depicts the dose response in AtGID1-RGA interaction in Assay B of Y2H. GA₄ (10⁻⁵ to 10⁻⁹ M) was added to the medium. The experiment was conducted in duplicates. The SD value shown in the figure was determined from three measurements. Panel C) depicts the results of an evaluation of the in vitro GA-binding potency of AtGID1 using AtDELLA. Left panel, 15 minutes after mixing AtGID1c (C), tritiated GA, with an excess amount of non-labeled GA (+) or without non-labeled GA (−). GAI (G) or RGA (R) was added, and then the GA-binding activity in each reaction mixture was measured according to the standard method. Recombinant protein originating from the vector (v) was used as a negative control. The experiment was carried out in duplicates. The SD value was determined from three measurements. Right panel, a profile of Western blotting for recombinant AtDELLA using an antibody to His tag. G, GAI; R, RGA; v, vector; M, molecular weight marker.
(§2) Arabidopsis has five DELLA proteins (RGA, GAI, RGL1, RGL2, and RGL3; collectively designated AtDELLA; Fleet, C. M., and Sun, T.-P. (2005) Curr. Opin. Plant Biol., 8, 77-85; Dill, A., and Sun, T. (2001) Genetics, 159, 777-785); therefore, there are 15 possible combinations of GID1/DELLA proteins. To verify the positive interactions between AtGID1-AtDELLA, two experiments were conducted using the yeast two hybrid (Y2H) system. […] In the second experiment (Assay B), β-galactosidase activity was measured, as reporter gene product of AtGID1-AtDELLA interactions. […]

Experiment [2] deals with T2, RGA (Arabidopsis DELLA protein), yeast two-hybrid prey in pGADT7 AD vector (Arabidopsis, UniProt Q9SLH3 1-587).
T2 construct: also called AtDELLA
T2 sequence (looked up): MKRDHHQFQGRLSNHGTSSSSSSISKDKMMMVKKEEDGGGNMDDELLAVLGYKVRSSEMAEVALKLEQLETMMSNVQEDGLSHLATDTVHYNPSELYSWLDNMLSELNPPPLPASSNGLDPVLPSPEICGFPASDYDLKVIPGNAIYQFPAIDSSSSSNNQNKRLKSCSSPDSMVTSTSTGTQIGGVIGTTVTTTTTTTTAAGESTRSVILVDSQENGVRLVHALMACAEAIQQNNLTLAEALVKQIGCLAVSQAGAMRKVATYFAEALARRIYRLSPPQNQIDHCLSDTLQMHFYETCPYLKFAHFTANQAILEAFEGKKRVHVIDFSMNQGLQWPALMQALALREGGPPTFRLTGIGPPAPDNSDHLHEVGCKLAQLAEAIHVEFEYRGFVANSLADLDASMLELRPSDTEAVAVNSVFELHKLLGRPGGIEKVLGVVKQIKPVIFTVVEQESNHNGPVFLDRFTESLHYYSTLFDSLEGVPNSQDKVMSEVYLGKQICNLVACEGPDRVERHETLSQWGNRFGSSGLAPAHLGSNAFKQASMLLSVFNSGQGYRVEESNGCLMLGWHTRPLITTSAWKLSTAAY
As to the method:
as §1, §2

For experiment [3], the target named is T3, GAI (Arabidopsis DELLA protein), yeast two-hybrid prey in pGADT7 AD vector (Arabidopsis, UniProt Q9LQT8 1-533).
T3 construct: also called AtDELLA
T3 sequence (looked up): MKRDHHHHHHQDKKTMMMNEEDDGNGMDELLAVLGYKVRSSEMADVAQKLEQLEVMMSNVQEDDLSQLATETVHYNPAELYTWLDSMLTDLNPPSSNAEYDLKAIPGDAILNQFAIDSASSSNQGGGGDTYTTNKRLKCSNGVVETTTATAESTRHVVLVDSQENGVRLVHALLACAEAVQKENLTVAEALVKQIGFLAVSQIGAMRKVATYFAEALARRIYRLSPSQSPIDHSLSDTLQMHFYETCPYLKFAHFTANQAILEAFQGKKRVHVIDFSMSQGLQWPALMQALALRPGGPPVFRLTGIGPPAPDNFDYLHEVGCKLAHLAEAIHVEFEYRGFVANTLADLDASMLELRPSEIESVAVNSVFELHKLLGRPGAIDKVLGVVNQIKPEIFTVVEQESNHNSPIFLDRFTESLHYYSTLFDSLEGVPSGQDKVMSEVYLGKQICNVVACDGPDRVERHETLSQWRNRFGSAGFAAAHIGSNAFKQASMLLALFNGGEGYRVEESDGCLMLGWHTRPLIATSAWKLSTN
The method, then:
as §1, §2

B1: AtGID1b (At3g63010), yeast two-hybrid bait in pGBKT7 DNA-BD vector (receptor, not shown: small tags and cut ends)
chain: MAGGNEVNLNECKRIVPLNTWVLISNFKLAYKVLRRPDGSFNRDLAEFLDRKVPANSFPLDGVFSFDHVDSTTNLLTRIYQPASLLHQTRHGTLELTKPLSTTEIVPVLIFFHGGSFTHSSANSAIYDTFCRRLVTICGVVVVSVDYRRSPEHRYPCAYDDGWNALNWVKSRVWLQSGKDSNVYVYLAGDSSGGNIAHNVAVRATNEGVKVLGNILLHPMFGGQERTQSEKTLDGKYFVTIQDRDWYWRAYLPEGEDRDHPACNPFGPRGQSLKGVNFPKSLVVVAGLDLVQDWQLAYVDGLKKTGLEVNLLYLKQATIGFYFLPNNDHFHCLMEELNKFVHSIEDSQSKSSPVLLTP
notes: Bait fusion for the Y2H assays; also called Arabidopsis GID1
Regarding B1, in experiment [1], the binding result was “binds”.

B2: AtGID1a (At3g05120), yeast two-hybrid bait in pGBKT7 DNA-BD vector (receptor, not shown: small tags and cut ends)
chain: MAASDEVNLIESRTVVPLNTWVLISNFKVAYNILRRPDGTFNRHLAEYLDRKVTANANPVDGVFSFDVLIDRRINLLSRVYRPAYADQEQPPSILDLEKPVDGDIVPVILFFHGGSFAHSSANSAIYDTLCRRLVGLCKCVVVSVNYRRAPENPYPCAYDDGWIALNWVNSRSWLKSKKDSKVHIFLAGDSSGGNIAHNVALRAGESGIDVLGNILLNPMFGGNERTESEKSLDGKYFVTVRDRDWYWKAFLPEGEDREHPACNPFSPRGKSLEGVSFPKSLVVVAGLDLIRDWQLAYAEGLKKAGQEVKLMHLEKATVGFYLLPNNNHFHNVMDEISAFVNAEC
notes: Bait fusion for the Y2H assays (BD Matchmaker Two-hybrid System 3); also called Arabidopsis GID1
On to B2, for which the binding result in experiment [2] and in experiment [3] was “binds” each time.
